Our source for the loss of anti-Fab signal on Nu-DUL-1 cells (flow cytometry) after IdeS treatment and membrane bound IgG on Nu-DUL-1 cells one hour after IdeS treatment and wash (flow cytometry, anti-Fab) values is patent US20210260173A1.

The target in the assay is IgG-type of BCR (membrane-bound IgG) on Nu-DUL-1 cells. The experiment in a line: cell-based or functional assay.

Regarding “Immunoglobulin G-degrading enzyme of S. pyogenes (IdeS)”, the loss of anti-Fab signal on Nu-DUL-1 cells (flow cytometry) after IdeS treatment was above 4 µg/mL; the membrane bound IgG on Nu-DUL-1 cells one hour after IdeS treatment and wash (flow cytometry, anti-Fab) was above 4 µg/mL.
